In publication PMC5034309, “Real-time visualization of conformational changes within single MloK1 cyclic nucleotide-modulated channels” (Nature Communications, 2016):

Molecular target: the molecule itself
Test: high-speed atomic force microscopy (HS-AFM); MloK1 2D crystals in lipid membrane adsorbed on mica; imaging buffer 10 mM Tris pH 7.4, 150 mM KCl, 100 uM cAMP; oscillating mode

B1: MloK1 cyclic nucleotide-modulated channel from Mesorhizobium loti (natural protein, UniProt Q98GN8 1-355, looked up)
chain: MSVLPFLRIYAPLNAVLAAPGLLAVAALTIPDMSGRSRLALAALLAVIWGAYLLQLAATLLKRRAGVVRDRTPKIAIDVLAVLVPLAAFLLDGSPDWSLYCAVWLLKPLRDSTFFPVLGRVLANEARNLIGVTTLFGVVLFAVALAAYVIERDIQPEKFGSIPQAMWWAVVTLSTTGYGDTIPQSFAGRVLAGAVMMSGIGIFGLWAGILATGFYQEVRRGDFVRNWQLVAAVPLFQKLGPAVLVEIVRALRARTVPAGAVICRIGEPGDRMFFVVEGSVSVATPNPVELGPGAFFGEMALISGEPRSATVSAATTVSLLSLHSADFQMLCSSSPEIAEIFRKTALERRGAAASA
notes: MloK1, cyclic nucleotide-modulated potassium channel of Mesorhizobium loti, full-length, wild type; The C-terminal hexahistidine tag was cleaved with thrombin after 2D crystallisation and before HS-AFM; Residues of the thrombin site may remain; also called wild-type MloK1; not shown: His6, C-terminal, cleaved
stoichiometry N: 4
